Experimental data as given in US9637543B2, “HER3 antibodies and uses thereof” (THE UAB RESEARCH FOUNDATION, priority 2011, dated 2017).
Entries after “also recorded” stand apart in the source; their conditions may differ.

How the values were obtained:
[1] = system: A549 human lung cancer xenograft; assay: A549 human lung cancer xenograft model; type: in vivo
[2] = biological target: T1, HER3-transfected SP 2/0 cells (Homo sapiens, UniProt P21860); assay: Flow cytometry for blocking of NRG1 binding to HER3; details: 100 ng/ml biotin-conjugated NRG1, increasing antibody concentrations
T1 construct: expressed in transfected cells; host or cells: SP 2/0 cells
T1 sequence (P21860 20-1342): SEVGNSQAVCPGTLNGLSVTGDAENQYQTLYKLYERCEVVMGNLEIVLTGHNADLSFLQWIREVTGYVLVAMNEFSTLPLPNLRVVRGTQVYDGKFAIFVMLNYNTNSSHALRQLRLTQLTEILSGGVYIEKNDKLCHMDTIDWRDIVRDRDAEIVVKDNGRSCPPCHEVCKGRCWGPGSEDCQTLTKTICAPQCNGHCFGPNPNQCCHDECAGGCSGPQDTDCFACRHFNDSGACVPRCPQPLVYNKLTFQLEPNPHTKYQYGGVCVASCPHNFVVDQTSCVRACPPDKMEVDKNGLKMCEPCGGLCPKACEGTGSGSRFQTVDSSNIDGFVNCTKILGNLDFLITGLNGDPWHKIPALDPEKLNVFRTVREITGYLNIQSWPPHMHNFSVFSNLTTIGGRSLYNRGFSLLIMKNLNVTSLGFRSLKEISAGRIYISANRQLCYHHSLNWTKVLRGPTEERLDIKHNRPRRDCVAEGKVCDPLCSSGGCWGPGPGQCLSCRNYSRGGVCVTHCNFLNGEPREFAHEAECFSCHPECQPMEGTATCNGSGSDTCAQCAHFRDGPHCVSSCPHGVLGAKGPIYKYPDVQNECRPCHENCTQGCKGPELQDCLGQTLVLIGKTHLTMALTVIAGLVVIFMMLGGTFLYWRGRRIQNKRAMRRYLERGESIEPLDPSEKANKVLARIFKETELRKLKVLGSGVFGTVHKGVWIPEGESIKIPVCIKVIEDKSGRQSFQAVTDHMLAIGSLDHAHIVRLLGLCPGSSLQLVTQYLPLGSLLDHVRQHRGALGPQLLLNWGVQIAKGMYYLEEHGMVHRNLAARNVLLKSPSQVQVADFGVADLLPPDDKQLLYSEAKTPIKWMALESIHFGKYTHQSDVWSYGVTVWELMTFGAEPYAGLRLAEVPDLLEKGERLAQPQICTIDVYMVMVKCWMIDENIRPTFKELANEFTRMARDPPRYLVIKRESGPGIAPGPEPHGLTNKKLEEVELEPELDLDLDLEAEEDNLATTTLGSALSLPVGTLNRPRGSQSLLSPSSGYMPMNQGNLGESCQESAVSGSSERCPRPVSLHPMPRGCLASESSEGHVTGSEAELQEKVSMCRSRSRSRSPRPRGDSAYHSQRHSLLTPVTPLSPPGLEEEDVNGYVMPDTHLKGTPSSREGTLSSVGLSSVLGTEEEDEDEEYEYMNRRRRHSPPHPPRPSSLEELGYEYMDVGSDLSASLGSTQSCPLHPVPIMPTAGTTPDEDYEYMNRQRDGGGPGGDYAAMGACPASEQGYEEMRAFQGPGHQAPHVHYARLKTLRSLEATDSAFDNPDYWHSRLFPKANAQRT
Source text: (§1) The binding of NRG1 to HER3 (vertical axis) was detected by HRP-streptavidin. […] NRG1 binding was detected by PE-streptavidin. The mean fluorescent intensities (MFI) of NRG1 bound are presented.
(§2) The binding of NRG1 to HER3 was detected by HRP-streptavidin. […] Thus, the 1A5 antibody is herein referred to as a ligand-independent antibody. […] Thus, the 3D4 antibody is herein referred to as a ligand-dependent antibody. […] NRG1 binding was detected by PE-streptavidin.

HER3 [3] = biological target: T2, HER3 (Homo sapiens, UniProt P21860); assay: HER3 tyrosine phosphorylation ELISA, antibodies with or without tyrosine kinase inhibitor; type: cell-based; set-up: endogenous in cells; host or cells: N87; tyrosine phosphorylation of HER3: dose or concentration left out as unconfirmed; details: 24 hours; for tyrosine phosphorylation levels of HER3: 20 μg/ml antibody
T2 sequence (P21860 20-1342): as above

recombinant soluble HER3 [4] = biological target: T3, recombinant soluble HER3 (Homo sapiens, UniProt P21860); assay: ELISA for blocking of NRG1 binding to HER3; details: 100 ng/ml biotin-conjugated NRG1, increasing antibody concentrations
T3 construct: coated with 1 μg/ml of recombinant soluble HER3
T3 sequence (P21860 20-643 limits assumed): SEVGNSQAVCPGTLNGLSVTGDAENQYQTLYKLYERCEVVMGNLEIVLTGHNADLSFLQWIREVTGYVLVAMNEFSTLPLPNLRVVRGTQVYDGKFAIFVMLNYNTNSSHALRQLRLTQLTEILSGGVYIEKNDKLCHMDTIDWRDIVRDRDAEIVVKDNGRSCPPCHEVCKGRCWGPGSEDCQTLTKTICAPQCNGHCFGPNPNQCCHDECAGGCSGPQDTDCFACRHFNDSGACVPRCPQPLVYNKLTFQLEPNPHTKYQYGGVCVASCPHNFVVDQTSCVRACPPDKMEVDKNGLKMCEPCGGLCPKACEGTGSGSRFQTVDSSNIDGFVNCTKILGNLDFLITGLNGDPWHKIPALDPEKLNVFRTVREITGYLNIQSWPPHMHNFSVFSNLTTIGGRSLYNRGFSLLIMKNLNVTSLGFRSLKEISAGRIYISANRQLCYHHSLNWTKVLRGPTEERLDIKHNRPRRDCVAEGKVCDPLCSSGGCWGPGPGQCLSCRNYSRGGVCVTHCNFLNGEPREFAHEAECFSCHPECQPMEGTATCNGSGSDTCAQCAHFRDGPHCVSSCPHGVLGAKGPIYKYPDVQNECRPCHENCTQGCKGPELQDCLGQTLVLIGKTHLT
Source text: as §1, §2

HER3 [5] = biological target: T2, HER3; assay: Ligand-dependent (NRG1) activation of HER3 in cancer cells, ELISA; type: cell-based; set-up: endogenous in cells; host or cells: N87, BT474, ZR75-30, Panc 2.03; details: N87, BT474, ZR75-30, Panc 2.03 cells; antibody 24 hours, then 100 pg/ml NRG1 1 hour
Source text: (§3) The ELISA plate was coated with 3F8 anti-HER3 antibody (recognizing a different epitope than 1A5 and 3D4) to capture total HER3.
as §3
An ELISA plate was coated with 3F8 anti-HER3 antibody to capture total HER3.

recombinant soluble HER3 [6] = biological target: T3, recombinant soluble HER3; assay: Sandwich ELISA for epitopes (1A5 capture, HRP-3D4 detection); type: binding; details: plate coated with 2 μg/ml 1A5, 200 ng/ml HRP-conjugated 3D4
Experimental: An ELISA plate was coated with 2 μg/ml of purified 1A5 and then incubated with indicated concentrations of recombinant soluble HER3 in the presence of 200 ng/ml HRP-conjugated 3D4. The binding of 3D4 to HER3 was detected by chemiluminescence substrate. The average counts per second of triplicates are presented.
An ELISA plate was coated with 2 μg/ml of purified 1A5 and then incubated with increasing concentrations of HER3 in the presence of 200 ng/ml HRP-conjugated 3D4. The binding of 3D4 antibody to HER3 was detected by chemiluminescence.

EGFR [7] = biological target: T4, EGFR (Homo sapiens, UniProt P00533); assay: EGFR autophosphorylation in pancreatic cancer cell lines; type: cell-based; set-up: endogenous in cells; host or cells: panel of eight pancreatic cancer cell lines
HER3 [8] = biological target: T2, HER3; assay: Ligand-independent activation (autophosphorylation) of HER3 in cancer cells, ELISA; type: cell-based; set-up: endogenous in cells; host or cells: N87, BT474, ZR75-30, Panc 2.03
Experimental: The ELISA plate was coated with 3F8 anti-HER3 antibody (recognizing a different epitope than 1A5 and 3D4) to capture total HER3 (Total HER3, right graph for FIGS. 4A-4D). […] The total HER3 was detected by HRP-conjugated 1E8 anti-HER3 antibody. The tyrosine-phosphorylated HER3 and total HER3 levels were then measured by chemiluminescence.
The ELISA plate was coated with 3F8 anti-HER3 antibody (recognizing a different epitope than the 1A5 antibody) to capture total HER3.

HER3 [9] = biological target: T2, HER3; assay: HER3 autophosphorylation in pancreatic cancer cell lines; type: cell-based; set-up: endogenous in cells; host or cells: N87, BT474, ZR75-30, Panc 2.03, A549 and a panel of human cancer cell lines; details: single agents
[10] = system: MKN28 human gastric cancer xenograft; assay: MKN28 human gastric cancer xenograft model; type: in vivo; details: in combination with lapatinib
[11] = system: DR5-apoptosis resistant human breast cancer ZR75-1 cell line; assay: Functional screen for apoptosis of DR5-resistant cells; type: cell-based; details: in the presence of an agonistic DR5-antibody selected from TRA-8 or CTB006
Source text: In a functional screen of a hybridoma library made against the DR5-apoptosis resistant human breast cancer ZR75-1 cell line, the 1A5 antibody was identified. […] The target of the 1A5 antibody was identified to be HER3 by immunoprecipitation with the 1A5 antibody and subsequent mass spectrometry analysis.

EGFR [12] = biological target: T4, EGFR; assay: EGFR tyrosine phosphorylation ELISA, antibodies with or without tyrosine kinase inhibitor; details: 24 hours
HER2 [13] = biological target: T5, HER2 (Homo sapiens, UniProt P04626); assay: HER2 tyrosine phosphorylation ELISA, antibodies with or without lapatinib; type: cell-based; set-up: endogenous in cells; host or cells: N87 gastric cancer cells; ZR75-30 breast cancer cells; details: 24 hours, without lapatinib
[14] = biological target: T6, HER3 (extracellular domain) (Homo sapiens, UniProt P21860); assay: ELISA binding specificity on recombinant soluble EGFR, HER2, HER3; details: plate coated with 1 μg/ml recombinant soluble EGFR, HER2 or HER3 extracellular domain
T6 construct: recombinant soluble EGFR, HER2, or the extracellular domain of HER3
T6 sequence (P21860 20-643 limits assumed): as above
Experimental: (§4) The average OD values of triplicates are presented. The values for egFR are superimposed on the values for HER2. […] EGFR, HER2 or HER3-transfected SP 2/0 cells were stained with 1 μg/ml of purified antibody, followed by PE-goat anti-mouse IgG.
(§5) An ELISA plate was coated with 1 μg/ml of recombinant soluble EGFR, HER2, or the extracellular domain of HER3.

HER2 [15] = biological target: T5, HER2; assay: HER2 autophosphorylation in pancreatic cancer cell lines; type: cell-based; set-up: endogenous in cells
[16] = system: HT29 human colon cancer xenograft; assay: HT29 human colon cancer xenograft model; type: in vivo
[17] = biological target: T1, HER3-transfected SP 2/0 cells; assay: Flow cytometry binding specificity on transfected SP 2/0 cells; details: EGFR, HER2 or HER3 transfected SP2/0 cells, 1 μg/ml purified antibody
Experimental: as §4, §5

[18] = system: N87 human gastric cancer xenograft; assay: N87 human gastric cancer xenograft model; type: in vivo; details: in combination with lapatinib

B1: 1A5: ligand-independent HER3 antibody; heavy chain variable region SEQ ID NO:1, light chain variable region SEQ ID NO:2 (antibody, V domains shown)
VH: MEWIWIFLFIFSGTAGVHSQVQLQQSGAELARPGASVKLSCKASGYTFTDNYINWMKQRPGQGLEWIGEIYPGSGNTYYNEKFKGKATLTADKSSSTAYMQLSSLTSEESAVYFCARSPNLRLYYFDYWGQGTTLTVSS
VL: MVSTSQLLGLLLFWTSASRCDIVMTQSPATLSVTPGDRVSLSCRASQSINDYLYWYQQKLHESPRLLIKFASHSISGIPSRFSGSGSGSDFTLSINSVEPEDVGVYYCQNGHSFPLTFGAGTKLELK
- tumor volume ([1]; antibodies without Erbitux): reduced tumor volume
- tumor volume ([1]; in combination with Erbitux): reduced tumor volume more than administration of Erbitux alone
- blocking of NRG1 binding to HER3 (flow cytometry) [2]: failed to block NRG1 binding to HER3; also recorded: does not block ligand binding to HER3
- tyrosine phosphorylation levels of HER3, effect of adding Erlotinib (HER3 [3]; A549 cells, 20 μg/ml antibody with 100 nM Erlotinib): enhanced
- tyrosine phosphorylation levels of HER3 (HER3 [3]; A549 cells, without Erlotinib): reduced the tyrosine-phosphorylation levels of HER3
- tyrosine phosphorylation of HER3 (HER3 [3]; N87 cells, without lapatinib): reduced the tyrosine phosphorylation of HER3
- tyrosine phosphorylation of HER3, effect of adding lapatinib (HER3 [3]; N87 cells, with 100 nM lapatinib): enhanced
- tyrosine phosphorylation levels of HER3, effect of adding lapatinib (HER3 [3]; ZR75-30 cells, 20 μg/ml antibody with 100 nM lapatinib): enhanced
- tyrosine phosphorylation levels of HER3 (HER3 [3]; ZR75-30 cells, without lapatinib): reduced the tyrosine phosphorylation levels of HER3
- blocking of NRG1 binding to HER3 (ELISA) (recombinant soluble HER3 [4]): failed in block NRG1 binding to HER3; also recorded: does not block ligand binding to HER3
- inhibition of ligand-dependent activation of HER3 (HER3 [5]): capable of inhibiting ligand-dependent activation of HER3 to a lesser extent than the ligand-dependent 3D4 antibody
- epitopes of HER3 bound (recombinant soluble HER3 [6]): bind different epitopes of HER3; also recorded: recognize different epitopes on HER3
- autophosphorylation of EGFR, 1A5 with erlotinib (EGFR [7]; in combination with erlotinib): capable of enhancing the inhibitory activity of erlotinib; also recorded: able to enhance the inhibitory activity of erlotinib
- autophosphorylation of EGFR, 1A5 with lapatinib (EGFR [7]; in combination with lapatinib): not able to enhance the activity of lapatinib
- autophosphorylation of EGFR (EGFR [7]; single agents): partially inhibited EGFR autophosphorylation in a HER3-dependent fashion
- inhibition of ligand-independent activation of HER3 in a panel of human cancer cell lines (HER3 [8]; 20 μg/ml 1A5, 24 hours): inhibition of ligand-independent activation of HER3 in a panel of human cancer cells lines
- inhibition of autophosphorylation of HER3 (HER3 [8]; N87, BT474, ZR75-30, Panc 2.03 cells, increasing concentrations, 24 hours): capable of inhibiting autophosphorylation of HER3 to a greater extent than the ligand-dependent 3D4 antibody; also recorded: dose-dependent inhibition of ligand-independent activation (autophosphorylation) of HER3
- autophosphorylation of HER3 (HER3 [9]): inhibited autophosphorylation of HER3 in all HER3 positive cell lines except for Panc1; also recorded: inhibited autophosphorylation of HER3 in all HER3 positive cell lines, except Panc 1
- tumor volume [10]: synergistically reduces tumor volume
- apoptosis of DR5-resistant ZR75-1 cells [11]: apoptosis of the DR5-resistant ZR75-1 cells was observed
- tyrosine phosphorylation levels of EGFR (EGFR [12]; A549 cells, 20 μg/ml antibody, without Erlotinib): did not affect tyrosine phosphorylation levels of EGFR
- tyrosine phosphorylation level of EGFR (EGFR [12]; N87 cells, 20 mg/ml antibody, without lapatinib): did not affect the level of tyrosine phosphorylation for EGFR or HER2
- tyrosine phosphorylation level of HER2 (HER2 [13]; N87 cells): did not affect the level of tyrosine phosphorylation for EGFR or HER2
- tyrosine phosphorylation levels of HER2 (HER2 [13]; ZR75-30 cells, 20 μg/ml antibody): did not affect tyrosine phosphorylation levels of HER2
- binding specificity by ELISA [14]: specifically bind HER3; also recorded: specific binding
- autophosphorylation of HER2, 1A5 with lapatinib (HER2 [15]; in combination with lapatinib): significantly reduced levels of HER2 autophosphorylation; also recorded: reduced the levels of HER2 autophosphorylation to a greater extent than the 1A5 antibody or lapatinib alone
- autophosphorylation of HER2 (HER2 [15]; single agents): partially inhibited autophosphorylation of HER2
- tumor volume ([16]; antibodies or lapatinib alone): had the greatest tumor volume reducing effect; also recorded: reduces tumor volume
- tumor volume ([16]; in combination with lapatinib): synergistically reduces tumor volume
- binding specificity by flow cytometry [17]: specifically bind HER3
- tumor volume [18]: synergistically reduces tumor volume
